The values that follow come from PMC10028610, “A Cold-Active Flavin-Dependent Monooxygenase from Janthinobacterium svalbardensis Unlocks Applications of Baeyer–Villiger Monooxygenases at Low Temperature” (ACS Catalysis, 2023).

As usually defined, the stoichiometry N is a count of units in the complex or per binding partner. For orientation: Km means the substrate concentration at which the rate is half of its maximum.

Data set [1] has as its target type II flavin-containing monooxygenase from Janthinobacterium svalbardensis (Janthinobacterium svalbardensis PAMC27463). As to the kind of experiment: SEC; size exclusion chromatography of purified JsFMO, with a calibration curve (Figure S2).
Data set [2] has the same target. The experiment in a line: crystal structure; sitting-drop vapor diffusion in the cold room (4-8 °C); 16 mg/mL JsFMO, glycerol 20%, PEG 8000 13%, 100 mM Bis-Tris pH 6.5; four protomers forming two dimers in the asymmetric unit; FAD bound, no NADP+.
Substrate in data set [3]: NC(=O)C1=CN([C@@H]2O[C@H](COP(=O)(O)OP(=O)(O)OC[C@H]3O[C@@H](n4cnc5c(N)ncnc54)[C@H](O)[C@@H]3O)[C@@H](O)[C@H]2O)C=CC1
As to the kind of experiment: purified protein. The format is biochemical, Janthinobacterium svalbardense. As to conditions: 100 mM Tris-HCl pH 7.5, 500 mM NaCl, 10% glycerol, 1 mM DTT, 5 μM FAD, room temperature, co-substrate concentration not given.

Substrate in data set [4]: NC(=O)C1=CN([C@@H]2O[C@H](COP(=O)(O)OP(=O)(O)OC[C@H]3O[C@@H](n4cnc5c(N)ncnc54)[C@H](OP(=O)(O)O)[C@@H]3O)[C@@H](O)[C@H]2O)C=CC1
The experiment in a line: purified protein. The data set is classed as biochemical, Janthinobacterium svalbardense. As to conditions: 100 mM Tris-HCl pH 7.5, 500 mM NaCl, 10% glycerol, 1 mM DTT, 5 μM FAD, room temperature, co-substrate concentration not given.

Substrate in data set [5]: O=C1CC2C=CCC12
As to the kind of experiment: purified protein. The data set is classed as biochemical, Janthinobacterium svalbardense. The conditions noted are these: 0.25 mM NADPH, 0.25-20 mM 1a, 100 mM Tris-HCl pH 7.5, 500 mM NaCl, 10% glycerol, 1 mM DTT, 5 μM FAD, room temperature.

For “type II flavin-containing monooxygenase from Janthinobacterium svalbardensis (enzyme)”, the stoichiometry N in data set [1] and in data set [2] was 2 in each case.

B1: JsFMO (Janthinobacterium svalbardense) (protein)
chain: MQTDSNPHDLAVAGILEQLEGCLRASDSTGAAQLFEPDGYWRDLVLFTWNLKTLEGREQIAAMLAAQLGAVQPVSIRIADGEHAVEAGGVLQSWITVETNVARGVGFIRIRDGKIWTLLTTMSELKGFEEAKGGRRPMGAEHGARTDRSSWLEQREQEAKELGYARQPYCVIIGGGQGGIALGARLRQLNVPTIIIEKNARPGDSWRKRYKSLCLHDPVWYDHMPYIPFPDNWPVFTPKDKVGDWLEMYTKVMELNYWGSTSCESASFDAASGEWTVQVLRDGQPVTLKPKQLVLATGMSGKANMPKFKGMDVFQGEQQHSSQHPGPDAYAGKKVVVVGANNSAHDICAALWEAGVDVTMVQRSSTHIVKSDSLMDLALGDLYSERALAAGMTTNKADLTFASIPYKILANFQKPVFKAIRERDADFYARLEERGFMLDFGDDDSGLFMKYLRRGSGYYIDVGASELVAEGKIKLKSGVGVQELKSHSIVLSDGTELPADLVVYATGYGSMNGWAADLISPEVANKVGKVWGLGSATTKDPGPWEGEQRNMWKPTQQQALWFHGGNLHQSRHYSQYLSLQLKARMEGLNTPVYGQQEVHHLS
notes: full-length, codon-optimized in pET-28a(+)-TEV, E. coli ArcticExpress (DE3), C-terminal His-tag (stated for crystal structure); homodimer; SnoaL-like N-terminal domain, C-terminal helix residues 567-586
On to B1, for which the Michaelis-Menten constant (Km) in “purified protein [3]” is 78.5 ± 7.5 µM; in “purified protein [4]”, 14.4 ± 2.5 µM; in “purified protein [5]” it was 1050 ± 230 µM. The kcat in “purified protein [3]” was 0.23 ± 0.1 s^–1; in “purified protein [4]” it was 0.21 ± 0.1 s^–1; in the data set “purified protein [5]”, 0.29 ± 0.01 s^–1.
